Reference: patent US12194082B2, “Compositions and methods for treatment of homocystinuria” (THE REGENTS OF THE UNIVERSITY OF COLORADO, priority 2016, dated 2025)
Read-outs that look alike come from different tables or passages of the source.

Tests used:
[1] = Pharmacokinetics of PEGylated htCBS C15S in HO mice (plasma CBS activity); assay type: in vivo
Description: For 20NHS PEG-htCBS C15S, HO mice were administered SQ a dose of 5, 10 or 15 mg/kg dose or were administered IV a dose of 10 mg/kg. For 400MA-htCBS C15S, HO mice received a single dose of 10 mg/kg either SC or IV of one of the three forms: (i) a mixture of all species, where no separation of individual forms has been attempted (mix), (ii) a homoPEGylated specie (Peak 1), and (iii) a hetero/hemiPEGylated species (Peak 2).
Both male and female HO mice were used in this example, and each group contained 3 to 4 mice. Two groups of mice designated “A” and “B” were used for each route of administration to minimize the blood volume taken from any one mouse. For SC administration, blood was collected from group A at 0.5, 3, 24, and 72 hours post-injection and from group B at 1, 6, 48, and 96 hours post-injection. For IV administration, blood was collected from group A at 0.25, 1, 6, and 48 hours post-injection and from group B at 0.5, 3, 24, and 72 hours post-injection.

Hcy, Cth, Cys, and Met = assay: Plasma metabolites in I278T mice of the DEXA study; assay type: in vivo; conditions: continuous long-term administration
Description: Plasma metabolites were determined in the same mice/groups as described above and compared to each other. The left bar represents the level of metabolite for +/− healthy controls, and the middle bar represents the level of metabolite for −/− affected controls. The levels of each metabolite in 20NHS PEG-htCBS C15S-treated mice is represented by the right bar.

Hcy, Cth, Cys, Met = assay: Diet study (regular vs Met-restricted diet) in I278T mice: plasma metabolites; assay type: in vivo
Description: A diet study was performed in I278T mice and analyze them. Plasma metabolites of 10 weeks old mice: +/− I278T (control), −/− I278T (negative control), and −/− treated with 20NHS PEG-[…] (OT-58) mice. Each group was further divided into subgroups: one on a regular diet (8.2 g/kg Met TD.01084 diet+zinc water) (REG) and one on a methionine-restricted diet (0.5 g/kg Met TD.110591 diet+betaine water) (MRD). Treatment was begun at W5 of age.

[2] = test system: homocysteine, cystathionine, cysteine, lanthionine, and homolanthionine; assay: Pharmacodynamics (plasma sulfur amino acid metabolites) in monkeys; assay type: in vivo, cynomolgus monkeys (Macaca fascicularis); design: Cystathionine plasma level / Lanthionine plasma level / Homolanthionine plasma level: unit not given here; conditions: for Homolanthionine plasma level / Lanthionine plasma level / Cystathionine plasma level: mean ± SEM
Description: Plasma metabolites homocysteine, cystathionine and cysteine were determined by stable-isotope-dilution liquid chromatography mass spectrometry as previously described in (Allen et al., 1993, Metabolism, 42: 1448-1460). Measurements of total non-protein bound homocysteine and other aminothiols as well as of amino acids in tissue were performed as described in (Maclean et al., 2010b. Mol. Genet. Metab. 101, 153-162). Metabolites were determined by stable-isotope-dilution liquid chromatography mass spectrometry.

[3] = rat, in vivo, sc
Description: CBS activity was determined by a radioisotope assay with C^14-labeled serine as a substrate. Ten μl (total 490 ng) of pure htCBS in dilution buffer (0.1 M Tris-HCl pH=8.6, 1 mM DTT, 10 μM PLP, 0.5 mg/ml BSA) or 10 μl of plasma were added to 85 μl of reaction mixture containing 0.1 M Tris-HCl pH=8.6, 10 mM L-serine, 0.5 mM PLP, 0.5 mg/ml BSA and 0.3 μCi (for pure enzyme) or 0.45 μCi (for plasma) of L-[C^14(U)]-Serine. Samples were incubated for 5 min at 37° C. and reaction was initiated by addition of 5 μl of 0.2 M Hcy (10 mM final concentration). Following 30 min of incubation at 37° C., a 20 μl aliquot of the assay mixture was applied onto a grade 3 CHR Whatman (NJ, USA) paper. Assay initiation and sampling of the resulting mixture were staggered so that each reaction time was 30 minutes. Descending paper chromatography was used to isolate the radioactive product (Cth) from a labeled substrate (Ser). The C^14-cystathionine formed in the reaction was separated from C^14-serine by an overnight descending paper chromatography in 2-propanol/formic acid/H2O (75:5.7:18.9 v/v). Radioactivity in the area of the marker cystathionine (detected by staining the marker lane with ninhydrin) was determined by cutting the chromatogram into strips that were submerged in 5 ml of Opti-fluor scintillation cocktail (PerkinElmer, MA, USA) and counted in a Beckman LS-3801 scintillation counter. An enzyme-free sample was used as a blank to monitor the background radioactivity that was then subtracted from each sample. For pure enzyme, specific activity values are expressed as enzyme units (the amount of enzyme that produces 1 μmol of cystathionine/hour) per mg of CBS, and for plasma samples as units per μl plasma.
The pharmacokinetic (PK) parameters were calculated using a non-compartmental curve stripping model which resolves a curve into a series of exponential terms corresponding to the absorption, distribution and elimination phases occurring during the time course of the enzyme in the blood. The curve stripping approach assumes that the disposition phases of the drug follow apparent first-order kinetics, which is evidenced by the linearity in the terminal portion of a semi-log plot. These calculations were made using a modeling program called PK Solutions 2.0 (Summit Solutions, Montrose, CO) using the mean plasma enzyme activity for each route of administration. The bioavailability was calculated by dividing the area under the curve (AUC) for the SC or IP route by the AUC observed after IV administration.
In order to assess the pharmacokinetics of 20NHS PEG-htCBS C15S in rats, wild-type Sprague Dawley rats were injected with a single dose of 20NHS PEG-htCBS C15S through intra-vascular (IV) or sub-cutaneous (SC) routes. The design of a third (repeated dose) PK study (groups 7-9) was adjusted to allow extraction of data after the first dose and thus their combination with a single dose PK study (groups 1-6).
To further evaluate rats as a species for conducting long-term toxicity studies, the pharmacokinetics of 20NHS PEG-htCBS C15S was determined in three groups of Sprague Dawley rats receiving a total of 9 SC injections every 48 hours of either 4 mg/kg (low), 8 mg/kg (mid), or 24 mg/kg (high) 20NHS PEG-htCBS C15S. […] The experiment was conducted for a length of 24 days.

[4] = for Peak @ SS, predicted / Trough @ SS, predicted: 80% bioavailability assumed; for Extrapolated concentration: hypothetical single dose curve
Description: Using a dose of 5 mg/kg and correcting for the difference in body surface area between humans (70 kg) and mice (0.025 kg), a dose of 0.4 mg/kg was estimated to be the efficacious human equivalent dose (HED). […] Since the substrate for 20NHS PEG-htCBS C15S activity (Hcy and serine) was the same across species and the site of action was the blood pool itself, these parameters provide an accurate estimate of the target human plasma levels required for efficacy in a 20NHS PEG-htCBS clinical trial.
Interspecies comparisons were conducted based upon body surface area scaling assuming an 80% bioavialability in all 3 species (mouse, rat and monkey) to determine if a linear correlation existed between the log body weight and the log of various PK parameters (AUC/dose, Cmax per dose and T1/2). […] Linear correlations allow predictions of the clinical dose and dosing regimen from the preclinical data to be made.
By extrapolating to the log body weight for humans (70 kg) for each parameter, the AUC/dose, Cmax/dose, and T1/2 was calculated for human subjects.
The human predicted efficacious dose was calculated from the efficacious dose in mice (5 mg/kg) by allometric scaling to be 0.4 mg/kg in a 70 kg human.

[5] = body surface area scaling, 70 kg human
[6] = human, 0.33 mg/kg SC 1x/week (168 h)
[7] = human, 0.33 mg/kg SC 2x/week (84 h)
[8] = human, 0.66 mg/kg SC 1x/week (168 h)
[9] = human, 0.66 mg/kg SC 2x/week (84 h)
[10] = human, 1 mg/kg SC 1x/wk (168 h)

Substance: 20NHS PEG-htCBS C15S: htCBS C15S PEGylated with ME-200GS PEG (20 kDa linear NHS ester-activated PEG)
- E Half-life ([1]; 10 mg/kg IV): 47.6 ± 14.6 h
- average circulating time of a single enzyme molecule (MRT) ([1]; mouse, in vivo): 44 to 194 h
- AUC(0-t) (obs area) ([1]; mouse, in vivo, iv, 10 mg/kg): 7431 ± 154 mU-hr/μL
- CL (obs area) ([1]; mouse, in vivo, iv, 10 mg/kg): 1346 ± 27.3 µL/h
- MRT (area) ([1]; mouse, in vivo, iv, 10 mg/kg): 52 ± 13 h
- cmax (obs) ([1]; mouse, in vivo, iv, 10 mg/kg): 371.6 ± 11.2 mU/μL
- AUC/dose ([1]; mouse, in vivo, sc): 612 (mU-h/mL)/(mg/kg)
- T1/2 ([1]; mouse, in vivo, sc): 20 h
- absorption half-life ([1]; mouse, in vivo, sc): 5 to 12 h
- bioavailability in HO mice ([1]; mouse, in vivo, sc): 52-83%
- cmax/dose ([1]; mouse, in vivo, sc): 10 (mU/μL)/(mg/kg)
- tmax ([1]; mouse, in vivo, sc): 24 h
- A Half-life ([1]; mouse, in vivo, sc, 5 mg/kg): 5.3 ± 1.1 h
- AUC in mice ([1]; mouse, in vivo, sc, 5 mg/kg): 3060 mU−h/mL
- CL (obs area) ([1]; mouse, in vivo, sc, 5 mg/kg): 1636 ± 86 µL/h
- E Half-life ([1]; mouse, in vivo, sc, 5 mg/kg): 137 ± 95 h
- MRT (area) ([1]; mouse, in vivo, sc, 5 mg/kg): 194 ± 128 h
- cmax/dose ([1]; mouse, in vivo, sc, 5 mg/kg): 10.3
- A Half-life ([1]; mouse, in vivo, sc, 10 mg/kg): 12.7 ± 0.6 h
- Bioavailability ([1]; mouse, in vivo, sc, 10 mg/kg): 64.6%
- CL (obs area) ([1]; mouse, in vivo, sc, 10 mg/kg): 2113 ± 280 µL/h
- E Half-life ([1]; mouse, in vivo, sc, 10 mg/kg): 17.5 ± 1.27 h
- MRT (area) ([1]; mouse, in vivo, sc, 10 mg/kg): 44.8 ± 1.7 h
- cmax (obs) ([1]; mouse, in vivo, sc, 10 mg/kg): 89.9 ± 10.2 mU/μL
- cmax/dose ([1]; mouse, in vivo, sc, 10 mg/kg): 9.0
- A Half-life ([1]; mouse, in vivo, sc, 15 mg/kg): 11.9 ± 1.2 h
- Bioavailability ([1]; mouse, in vivo, sc, 15 mg/kg): 51.6%
- CL (obs area) ([1]; mouse, in vivo, sc, 15 mg/kg): 2609 ± 72 µL/h
- E Half-life ([1]; mouse, in vivo, sc, 15 mg/kg): 22.0 ± 1.7 h
- MRT (area) ([1]; mouse, in vivo, sc, 15 mg/kg): 49.0 ± 1.4 h
- cmax (obs) ([1]; mouse, in vivo, sc, 15 mg/kg): 104.2 ± 11.3 mU/μL
- cmax/dose ([1]; mouse, in vivo, sc, 15 mg/kg): 6.9
- half-life determinations in the SC dose groups ([1]; mouse, in vivo, sc, 15 mg/kg): 17.5 to 137 h
- Hcy, Cth, Cys and Met plasma levels vs untreated −/− mice (Hcy, Cth, Cys, and Met): significantly improved
- plasma Cth (Hcy, Cth, Cys, Met; −/− I278T on MRD diet): 10 µM
- plasma Hcy (Hcy, Cth, Cys, Met; −/− I278T on MRD diet (41 μM untreated)): 2 µM
- plasma Cth (Hcy, Cth, Cys, Met; −/− I278T on REG diet): 113 µM
- plasma Met (Hcy, Cth, Cys, Met; −/− I278T on REG diet): 66 µM
- plasma Hcy (Hcy, Cth, Cys, Met; −/− I278T on REG diet (356 μM untreated)): 50 µM
- plasma Hcy (Hcy, Cth, Cys, Met; −/− I278T on REG diet (356 μM untreated), listed as OT-58): 51 µM
- plasma Cys (Hcy, Cth, Cys, Met; −/− I278T, MRD diet and/or treatment): normalize plasma levels of Cys
- Homolanthionine plasma level ([2]; 1 mg/kg SC every 72 h, 176 h): 64 ± 7
- Lanthionine plasma level ([2]; 1 mg/kg SC every 72 h, 176 h): 46 ± 9
- Cystathionine plasma level ([2]; 1 mg/kg SC every 72 h, 176 h after first injection): 4010 ± 236
- Cystathionine plasma level ([2]; 1 mg/kg SC every 72 h, 392 h): 4272 ± 333
- Homolanthionine plasma level ([2]; 1 mg/kg SC every 72 h, 392 h): 72 ± 5
- Lanthionine plasma level ([2]; 1 mg/kg SC every 72 h, 392 h): 69 ± 7
- Cystathionine plasma level ([2]; 3 mg/kg SC every 72 h, 176 h): 5629 ± 284
- Homolanthionine plasma level ([2]; 3 mg/kg SC every 72 h, 176 h): 64 ± 4
- Lanthionine plasma level ([2]; 3 mg/kg SC every 72 h, 176 h): 103 ± 7
- Cystathionine plasma level ([2]; 3 mg/kg SC every 72 h, 392 h): 5893 ± 390
- Homolanthionine plasma level ([2]; 3 mg/kg SC every 72 h, 392 h): 60 ± 10
- Lanthionine plasma level ([2]; 3 mg/kg SC every 72 h, 392 h): 109 ± 9
- Cystathionine plasma level ([2]; 10 mg/kg SC every 72 h, 176 h): 7098 ± 12
- Homolanthionine plasma level ([2]; 10 mg/kg SC every 72 h, 176 h): 50 ± 3
- Lanthionine plasma level ([2]; 10 mg/kg SC every 72 h, 176 h): 281 ± 43
- Cystathionine plasma level ([2]; 10 mg/kg SC every 72 h, 392 h): 9318 ± 288
- Homolanthionine plasma level ([2]; 10 mg/kg SC every 72 h, 392 h): 53 ± 4
- Lanthionine plasma level ([2]; 10 mg/kg SC every 72 h, 392 h): 353 ± 38
- plasma Cth ([2]; 8 hours after IV, 8 and 48 hours after SC administration): significant spikes
- plasma levels of Hcy and Cys ([2]; single IV or SC dose, healthy wild-type monkeys): No significant changes
- elimination half-life (T1/2) [3]: 44.5 h
- Initial Cmax, predicted ([4]; 0.33 mg/kg): 11.3 mU/μL
- Initial Cmax, predicted ([4]; 0.66 mg/kg): 22.6 mU/μL
- Initial Cmax, predicted ([4]; 1 mg/kg): 34 mU/μL
- AUC/dose, human predicted value [4, 5]: 7474 (mU-h/mL)/(mg/kg)
- Cmax/dose, human predicted value [4, 5]: 34 (mU/μL)/(mg/kg)
- E intercept of hypothetical single dose PK curve ([4]; human): 43.079
- Peak @ SS, predicted [4, 6]: 22.6 mU/μL
- Trough @ SS, predicted [4, 6]: 15.4 mU/μL
- Peak @ SS, predicted [4, 7]: 41 mU/μL
- Trough @ SS, predicted [4, 7]: 34.5 mU/μL
- Peak @ SS, predicted [4, 8]: 45.2 mU/μL
- Trough @ SS, predicted [4, 8]: 30.8 mU/μL
- Peak @ SS, predicted [4, 9]: 82 mU/μL
- Trough @ SS, predicted [4, 9]: 69 mU/μL
- C1min, predicted [4, 10]: 22.3
- Peak @ SS, predicted [4, 10]: 67.9 mU/μL
- Trough @ SS, predicted [4, 10]: 46.2 mU/μL
- C1min, predicted ([4]; human, 1 mg/kg SC 2x/wk (84 h)): 29.0
- Peak @ SS, predicted ([4]; human, 1 mg/kg SC 2x/wk (84 h)): 123 mU/μL
- Trough @ SS, predicted ([4]; human, 1 mg/kg SC 2x/wk (84 h)): 109 mU/μL
- Extrapolated concentration ([4]; human, 0 hours): 0
- Extrapolated concentration ([4]; human, 1 hours): 0.9
- Extrapolated concentration ([4]; human, 2 hours): 2
- Extrapolated concentration ([4]; human, 4 hours): 4.3
- Extrapolated concentration ([4]; human, 8 hours): 8
- Extrapolated concentration ([4]; human, 20 hours): 20
- Extrapolated concentration ([4]; human, 48 hours): 33.3
- Extrapolated concentration ([4]; human, 72 hours): 34
- Extrapolated concentration ([4]; human, 96 hours): 28
- Extrapolated concentration ([4]; human, 240 hours): 16.7
- Extrapolated concentration ([4]; human, 336 hours): 12
- Extrapolated concentration ([4]; human, 408 hours): 8.5
